# B1: huCAN46G24 (antibody, V domains shown)
# VH: EVQLVQSGAEVKKPGESVKVSCKASGYSFTGYYIHWVKQAPGQGLEWVGRIFPYNGAASYNQNFKGKATLTVDKSSSTAYMELSSLRSEDTAVYFCARWLRVYFDYWGQGTTVTVSS
# VL: EIVLTQSPSSLSTSVGDRVTISCSASSSVTYMHWYQQKPGKAPKLWIYETSKLASGVPGRFSGSGSGNSYTFTISSLQPEDIATYYCFQGSGYPFTFGQGTKVEIK
# notes: also called HuCAN46G24-2-3
# Legend:
# [1] = target: recombinant toxin B fragment 4 (Clostridium difficile, UniProt P18177 1777-2366); test: Western blot, 3 ug protein per lane, mAb from CHOK1SV at 0.038 ug/mL [Cont.]
# [2] = target: recombinant toxin B fragment 1 (Clostridium difficile, UniProt P18177 1-546); test: as above
# recombinant toxin B fragment 1, sequence (P18177 1-546 limits assumed): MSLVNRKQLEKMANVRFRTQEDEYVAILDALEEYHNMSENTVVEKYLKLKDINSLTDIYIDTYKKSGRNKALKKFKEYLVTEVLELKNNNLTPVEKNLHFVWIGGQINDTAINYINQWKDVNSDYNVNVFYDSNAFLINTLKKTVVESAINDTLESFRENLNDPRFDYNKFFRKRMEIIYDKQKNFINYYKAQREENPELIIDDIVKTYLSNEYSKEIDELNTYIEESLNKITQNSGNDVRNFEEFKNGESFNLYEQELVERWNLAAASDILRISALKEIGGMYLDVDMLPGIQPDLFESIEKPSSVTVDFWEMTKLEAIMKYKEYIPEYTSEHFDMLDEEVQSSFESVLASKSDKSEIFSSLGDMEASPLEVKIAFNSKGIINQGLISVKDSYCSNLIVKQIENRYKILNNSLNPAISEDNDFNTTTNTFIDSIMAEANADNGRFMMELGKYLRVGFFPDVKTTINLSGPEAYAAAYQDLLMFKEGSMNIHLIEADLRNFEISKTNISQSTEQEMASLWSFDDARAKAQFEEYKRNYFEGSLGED
# recombinant toxin B fragment 4, sequence (P18177 1777-2366 limits assumed): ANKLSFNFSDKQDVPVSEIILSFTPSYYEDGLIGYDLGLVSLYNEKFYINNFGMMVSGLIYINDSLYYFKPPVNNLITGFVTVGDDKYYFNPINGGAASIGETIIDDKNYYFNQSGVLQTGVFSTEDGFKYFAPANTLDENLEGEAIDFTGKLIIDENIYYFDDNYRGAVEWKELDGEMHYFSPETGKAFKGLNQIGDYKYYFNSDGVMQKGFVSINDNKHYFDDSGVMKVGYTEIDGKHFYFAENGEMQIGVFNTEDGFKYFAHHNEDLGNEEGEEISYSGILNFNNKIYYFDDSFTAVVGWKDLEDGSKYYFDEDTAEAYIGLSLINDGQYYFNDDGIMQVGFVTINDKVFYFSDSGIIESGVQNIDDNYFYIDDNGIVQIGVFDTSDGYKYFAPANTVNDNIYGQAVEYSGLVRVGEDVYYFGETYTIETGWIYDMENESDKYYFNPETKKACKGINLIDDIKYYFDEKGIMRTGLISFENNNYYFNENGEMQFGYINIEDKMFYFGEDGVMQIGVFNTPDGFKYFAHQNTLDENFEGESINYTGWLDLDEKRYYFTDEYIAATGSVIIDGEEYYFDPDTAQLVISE
binder,measurement,setting,value
B1,binding result,[1],binds
same,binding result,[2],no binding (tested: 0.038 ug/mL)

# Source: patent US20150290319A1 (EMERGENT BIOSOLUTIONS CANADA, published 2015)
